Article PMC9596277

What was measured:
[1] = molecular target: afucosylated palivizumab glycoform monogalactosylated at the α3 antenna (G1(3)) (human); test: SPR; Biacore T200, 25°C, PBS with 0.05% Tween 20 and 3.4 mM EDTA; palivizumab analogues captured on immobilised Protein A (CM-5); FcγRIIIA injected, single-cycle kinetics, 2.3 nM to 0.56 µM; 1:1 binding model, KD from the ratio of the rate constants; three repeats
[2] = molecular target: digalactosylated afucosylated (G2) palivizumab glycoform (human); test: as above
Chain of digalactosylated afucosylated (G2) palivizumab glycoform (human) (heavy, as listed by the source, chain 1 of 2): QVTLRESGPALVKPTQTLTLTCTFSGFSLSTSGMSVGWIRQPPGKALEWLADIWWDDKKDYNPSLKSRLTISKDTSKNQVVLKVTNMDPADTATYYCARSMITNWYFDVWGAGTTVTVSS
Chain of digalactosylated afucosylated (G2) palivizumab glycoform (human) (light, as listed by the source, chain 2 of 2): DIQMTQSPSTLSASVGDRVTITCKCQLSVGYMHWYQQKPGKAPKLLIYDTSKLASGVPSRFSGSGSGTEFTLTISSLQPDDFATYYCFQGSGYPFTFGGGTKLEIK

[3] = molecular target: afucosylated palivizumab glycoform monogalactosylated at the α6 antenna (G1(6)) (human); test: as above
Chain of afucosylated palivizumab glycoform monogalactosylated at the α6 antenna (G1(6)) (human) (heavy, as listed by the source, chain 1 of 2): as the sequence (heavy, as listed by the source, chain 1 of 2) above
Chain of afucosylated palivizumab glycoform monogalactosylated at the α6 antenna (G1(6)) (human) (light, as listed by the source, chain 2 of 2): as the sequence (light, as listed by the source, chain 2 of 2) above

[4] = molecular target: afucosylated agalactosylated (G0) palivizumab glycoform (human); test: as above
Chain of afucosylated agalactosylated (G0) palivizumab glycoform (human) (heavy, as listed by the source, chain 1 of 2): as the sequence (heavy, as listed by the source, chain 1 of 2) above
Chain of afucosylated agalactosylated (G0) palivizumab glycoform (human) (light, as listed by the source, chain 2 of 2): as the sequence (light, as listed by the source, chain 2 of 2) above

[5] = molecular target: commercially available palivizumab (Synagis) (human); test: SPR; same set-up as the kinetic SPR (palivizumab captured on Protein A, FcγRIIIA injected); value told as steady state binding
Chain of commercially available palivizumab (Synagis) (human) (heavy, as listed by the source, chain 1 of 2): as the sequence (heavy, as listed by the source, chain 1 of 2) above
Chain of commercially available palivizumab (Synagis) (human) (light, as listed by the source, chain 2 of 2): as the sequence (light, as listed by the source, chain 2 of 2) above

[6] = molecular target: FcγRIIIa (CD16A) V176 on NK92-GFP-CD16A cells (V variant) (human) (UniProt P08637)
[7] = molecular target: FcγRIIIa (CD16A) F176 on NK92-GFP-CD16A cells (F variant) (human) (UniProt P08637); test: flow cytometry on cells; NK92-GFP-CD16A cells (V or F variant) with 2.5-fold serial dilutions of palivizumab glycoforms in 1% BSA/PBS, 4°C, 30 min; detected with Alexa Fluor 647 anti-human IgG F(ab')2-specific fragment; % GFP+AF647+ cells

Chain of afucosylated palivizumab glycoform monogalactosylated at the α3 antenna (G1(3)) (human) (heavy, as listed by the source, chain 1 of 2): as the sequence (heavy, as listed by the source, chain 1 of 2) above
Chain of afucosylated palivizumab glycoform monogalactosylated at the α3 antenna (G1(3)) (human) (light, as listed by the source, chain 2 of 2): as the sequence (light, as listed by the source, chain 2 of 2) above

| Substance | Kd [1] [nM] | Kd [2] [nM] | Kd [3] [nM] | Kd [4] [nM] | maximum percent of cells bound [7] [%] | ADCC reporter assay (Jurkat T-cell luciferase reporter cells, CD16A V variant; RSV-infected Hep2 cells), activity against the G0 glycoform [6] [fold] | also measured |
| --- | --- | --- | --- | --- | --- | --- | --- |
| FcγRIIIA CD16A low binding (F) variant, National Research Council (Canada) (from UniProt P08637 17-254) (receptor) | 60 | 25.6 | 25 to 31 | 60 | – | – | – |
| digalactosylated afucosylated (G2) palivizumab glycoform (antibody) | – | – | – | – | – | 2 | – |
| afucosylated palivizumab glycoform monogalactosylated at the α6 antenna (G1(6)) (antibody) | – | – | – | – | – | 2 | – |

Continued, in another order:

| Kd [1] [nM] | Kd [2] [nM] | Kd [3] [nM] | Kd [4] [nM] | maximum percent of cells bound [7] [%] | Substance | ADCC reporter assay (Jurkat T-cell luciferase reporter cells, CD16A V variant; RSV-infected Hep2 cells), activity against the G0 glycoform [6] [fold] | also measured |
| --- | --- | --- | --- | --- | --- | --- | --- |
| 110 | 5.9 | 6 | 110 | – | FcγRIIIA CD16A high binding (V) variant, National Research Council (Canada) (from UniProt P08637 17-254) (receptor) | – | Kd [5]: 1000 nM |
| – | – | – | – | 30 | afucosylated palivizumab glycoform monogalactosylated at the α3 antenna (G1(3)) (antibody) | – | – |
| – | – | – | – | 30 | afucosylated agalactosylated (G0) palivizumab glycoform (antibody) | – | – |
